Assay results from PMC12057046 (2025).

B1: GST-tagged USP8 MIT domain (1-142) [human] / Girdin 1192-1207 peptide, cellulose-bound (SPOT array) [human] (parent complex)
chain 1: MPAVASVPKELYLSSSLKDLNKKTEVKPEKISTKSYVHSALKIFKTAEECRLDRDEERAYVLYMKYVTVYNLIKKRPDFKQQQDYFHSILGPGNIKKAVEEAERLSESLKLRYEEAEVRKKLEEKDRQEEAQRLQQKRQETG
chain 2: EVEHRDLEDRYNQLLK
B2: GST-tagged USP8 MIT domain (1-142) [human] / Cadherin-1 863-877 peptide, cellulose-bound (SPOT array) [not stated] (parent complex)
chain 1: B1 chain 1
chain 2: NEWGNRFKKLADMYG
B3: GST-tagged USP8 MIT domain (1-142) [human] / DNAJB6 118-130 peptide, cellulose-bound (SPOT array) [not stated] (parent complex)
chain 1: B1 chain 1
chain 2: PFEDFFGNRRGPR
B4: GST-tagged USP8 MIT domain (1-142) [human] / DBP 116-131 peptide, cellulose-bound (SPOT array) [human] (parent complex)
chain 1: B1 chain 1
chain 2: YVDLDAFLLEHGLPPS

Variants of: B1
Assay: SPOT array alanine scanning; read off a plot

Question: With chain 2 R10A as the variant, how does the screen value read?
Answer: ~-92%

Question: For chain 2 D6A, which screen value is on record?
Answer: ~40%

Question: Which screen value does the source give for chain 2 Q13A here?
Answer: ~28%

Question: How did the screen value turn out when chain 2 L7A was run?
Answer: ~-100%

Question: chain 2 H4A was tested. Which screen value did it give?
Answer: ~65%

Question: With chain 2 V2A as the variant, how does the screen value read?
Answer: ~69%

Question: For chain 2 L15A, which screen value is on record?
Answer: ~-81%

Question: How did the screen value turn out when chain 2 E1A was run?
Answer: ~50%

Question: Which screen value does the source give for chain 2 R5A here?
Answer: ~48%

Question: With chain 2 N12A as the variant, how does the screen value read?
Answer: ~-37%

Question: Which screen value does the source give for chain 2 Y11A here?
Answer: ~-100%

Question: chain 2 D9A was tested. Which screen value did it give?
Answer: ~58%

Question: How did the screen value turn out when chain 2 E8A was run?
Answer: ~-72%

Question: For chain 2 E3A, which screen value is on record?
Answer: ~80%

Question: How did the screen value turn out when chain 2 L14A was run?
Answer: ~-94%

Question: With chain 2 K16A as the variant, how does the screen value read?
Answer: ~120%

Variants of: B2
Assay: SPOT array alanine scanning; read off a plot

Question: Which screen value does the source give for chain 2 M13A here?
Answer: ~-22%

Question: chain 2 N5A was tested. Which screen value did it give?
Answer: ~-34%

Question: Which screen value does the source give for chain 2 G15A here?
Answer: ~-57%

Question: Which screen value does the source give for chain 2 R6A here?
Answer: ~-98%

Question: chain 2 N1A was tested. Which screen value did it give?
Answer: ~-9%

Question: With chain 2 W3A as the variant, how does the screen value read?
Answer: ~-100%

Question: Which screen value does the source give for chain 2 Y14A here?
Answer: ~-44%

Question: Which screen value does the source give for chain 2 E2A here?
Answer: ~-57%

Question: For chain 2 K9A, which screen value is on record?
Answer: ~-70%

Question: With chain 2 D12A as the variant, how does the screen value read?
Answer: ~-56%

Question: With chain 2 G4A as the variant, how does the screen value read?
Answer: ~-39%

Question: For chain 2 K8A, which screen value is on record?
Answer: ~-65%

Question: Which screen value does the source give for chain 2 A11G here?
Answer: ~-32%

Question: How did the screen value turn out when chain 2 F7A was run?
Answer: ~-100%

Question: With chain 2 L10A as the variant, how does the screen value read?
Answer: ~-62%

Variants of: B3
Assay: SPOT array alanine scanning; read off a plot

Question: With chain 2 E3A as the variant, how does the screen value read?
Answer: ~-46%

Question: How did the screen value turn out when chain 2 N8A was run?
Answer: ~-48%

Question: chain 2 R9A was tested. Which screen value did it give?
Answer: ~-19%

Question: With chain 2 P1A as the variant, how does the screen value read?
Answer: ~30%

Question: chain 2 P12A was tested. Which screen value did it give?
Answer: ~-17%

Question: How did the screen value turn out when chain 2 D4A was run?
Answer: ~-88%

Question: How did the screen value turn out when chain 2 F5A was run?
Answer: ~-63%

Question: How did the screen value turn out when chain 2 F6A was run?
Answer: ~-67%

Question: chain 2 R13A was tested. Which screen value did it give?
Answer: ~20%

Question: For chain 2 G7A, which screen value is on record?
Answer: ~-40%

Question: For chain 2 G11A, which screen value is on record?
Answer: ~-39%

Question: How did the screen value turn out when chain 2 F2A was run?
Answer: ~10%

Question: For chain 2 R10A, which screen value is on record?
Answer: ~-29%

Variants of: B4
Assay: SPOT array alanine scanning; read off a plot

Question: How did the screen value turn out when chain 2 Y1A was run?
Answer: ~110%

Question: For chain 2 E10A, which screen value is on record?
Answer: ~-94%

Question: For chain 2 L8A, which screen value is on record?
Answer: ~-20%

Question: For chain 2 A6G, which screen value is on record?
Answer: ~-38%

Question: How did the screen value turn out when chain 2 S16A was run?
Answer: ~12%

Question: For chain 2 V2A, which screen value is on record?
Answer: ~98%

Question: chain 2 H11A was tested. Which screen value did it give?
Answer: ~-79%

Question: With chain 2 P15A as the variant, how does the screen value read?
Answer: ~19%

Question: Which screen value does the source give for chain 2 L4A here?
Answer: ~-52%

Question: Which screen value does the source give for chain 2 D3A here?
Answer: ~-84%

Question: For chain 2 D5A, which screen value is on record?
Answer: ~-100%

Question: With chain 2 L9A as the variant, how does the screen value read?
Answer: ~98%

Question: How did the screen value turn out when chain 2 F7A was run?
Answer: ~-72%

Question: How did the screen value turn out when chain 2 G12A was run?
Answer: ~-87%

Question: Which screen value does the source give for chain 2 L13A here?
Answer: ~-22%

Question: For chain 2 P14A, which screen value is on record?
Answer: ~-5%
